The values below come from patent publication CN113045656A (TAIZHOU ENZE MEDICAL CT GROUP, dated 2021).

In this assay the target is T1, G5-pep2(299-319aa) 抗原肽 (human).
T1 peptide: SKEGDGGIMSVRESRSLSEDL
The experiment in a line: indirect ELISA, peptide coated at 2 ug/ml, purified antibody in 2-fold dilutions from 1:200, logistic fit. In general terms: ELISA stands for enzyme-linked immunosorbent assay.

B1: 抗HLA-G异构体分子HLA-G5及HLA-G6的单克隆抗体(9Y5G6) (antibody, V domains shown)
VH: VQLQESGGGLVQPGGSRKLSCAASGFTFRDFGMAWVRQVPGMGPEWVASISNLARIIDYADTVTGRFTISRENAKNTLYLEMNSLRSEDSAIYYCARVTTIVPDYWGQGTSLTVSS
VL: DIVITQDELSLPVSLGDHTSISCRSSQSLLHSNGHTYLHWYLQKPGQSPKLLIYKVSNRFSGVPDRFSGSGSGTDFTLKISRVEAEDLGVYFCSQSTHVPWTFGGGTKVEIKR
notes: only the CDRs are; also called 抗HLA-G单克隆抗体(9Y5G6)
Turning to B1, the Ka stood at 1.5e+11 M⁻¹ and the “X0 (midpoint of the logistic fit, antibody dilution factor)” value is 1.56e+06 dilution fold.
